Measurements taken from paper PMC10817852, “Vascular injury activates the ELK1/SND1/SRF pathway to promote vascular smooth muscle cell proliferative phenotype and neointimal hyperplasia”.

What was measured:
SND1 (1-660) = molecular target: T1, SND1 (1-660) (UniProt Q78PY7 1-660); assay: EMSA; SND1 alone; Beyotime GS009 chemiluminescent EMSA kit binding buffer (composition, salt and pH not given), 20 fmol biotin probe, 0.1 ug protein, 10 min at room temperature; details: protein: recombinant; label: biotin; blunt
T1 sequence: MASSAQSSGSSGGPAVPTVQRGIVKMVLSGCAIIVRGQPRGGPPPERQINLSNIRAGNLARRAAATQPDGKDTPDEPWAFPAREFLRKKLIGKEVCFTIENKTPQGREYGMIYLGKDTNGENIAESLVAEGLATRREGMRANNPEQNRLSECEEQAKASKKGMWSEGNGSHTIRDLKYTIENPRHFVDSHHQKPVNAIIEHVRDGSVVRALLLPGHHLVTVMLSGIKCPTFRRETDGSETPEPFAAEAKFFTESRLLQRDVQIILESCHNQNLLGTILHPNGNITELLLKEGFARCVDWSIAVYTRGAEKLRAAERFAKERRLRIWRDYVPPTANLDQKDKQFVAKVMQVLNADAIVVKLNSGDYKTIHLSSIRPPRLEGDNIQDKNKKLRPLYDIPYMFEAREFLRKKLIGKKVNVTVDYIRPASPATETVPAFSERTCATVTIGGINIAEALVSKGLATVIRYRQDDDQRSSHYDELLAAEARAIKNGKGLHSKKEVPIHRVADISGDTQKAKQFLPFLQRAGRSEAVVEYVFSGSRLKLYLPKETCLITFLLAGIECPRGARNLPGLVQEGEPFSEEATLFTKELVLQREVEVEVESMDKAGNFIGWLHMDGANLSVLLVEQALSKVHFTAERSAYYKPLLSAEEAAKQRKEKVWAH

SRF (1-266) = molecular target: T2, SRF (1-266) (UniProt P11831 1-266); assay: EMSA; unlabeled probe (200-fold) diminished binding; Beyotime GS009 chemiluminescent EMSA kit binding buffer (composition, salt and pH not given), 20 fmol biotin probe, 0.1 ug protein, 10 min at room temperature; details: protein: recombinant; (GST fusions described); chain copies: 2; label: biotin; blunt
T2 sequence: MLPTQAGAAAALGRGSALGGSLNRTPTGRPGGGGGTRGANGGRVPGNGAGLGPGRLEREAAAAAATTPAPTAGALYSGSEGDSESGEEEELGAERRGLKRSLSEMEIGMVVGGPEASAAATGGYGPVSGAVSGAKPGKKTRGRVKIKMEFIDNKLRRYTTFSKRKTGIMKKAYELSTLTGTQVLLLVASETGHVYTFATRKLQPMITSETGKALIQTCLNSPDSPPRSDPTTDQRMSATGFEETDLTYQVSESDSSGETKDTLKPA

B1: Fos CArG probe (dsDNA)
DNA 1: CCATATTAGGCCATATTAGGCCATATTAGGCCATATTAGGCCATATTAGG
DNA 2: CCTAATATGGCCTAATATGGCCTAATATGGCCTAATATGGCCTAATATGG
SND1 (1-660)
  binding result: no binding
SRF (1-266)
  binding result: binds
